Measured values as given in paper PMC9262588.
No end group written: not given here.

Molecular target: T1, FAM-tat peptide (UniProt P04608, also: FAM label, position not given here)
T1 chain: AAARKKRRQRRRAAA
Assay: SPR

Q: How did the Kd turn out when GGCAGAUCUGAGCCUGGGAGCUCUCUGCC (structured_RNA) [biotin-TAR RNA] was run?
A: 380 nM
